Reference: patent publication US20130236458A1 (AbbVie / Abbott, published 2013)

T1: Recombinant Human IL-17 (human, UniProt Q16552 20-155, limits assumed)
T1 sequence (looked up): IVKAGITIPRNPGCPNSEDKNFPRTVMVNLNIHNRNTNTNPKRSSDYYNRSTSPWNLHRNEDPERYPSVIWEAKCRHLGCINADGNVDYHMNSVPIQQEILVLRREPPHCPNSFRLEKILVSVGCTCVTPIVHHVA

B1: DVD2151 (bispecific antibody)
VH: EVQLVQSGAEVKKPGSSVKVSCKASGYTFTDYEIHWVRQAPGQGLEWMGVNDPESGGTFYNQKFDGRVTLTADESTSTAYMELSSLRSEDTAVYYCTRYSKWDSFDGMDYWGQGTTVTVSSASTKGPEVTLRESGPGLVKPTQTLTLTCTLYGFSLSTSDMGVDWIRQPPGKGLEWLAHIWWDDVKRYNPALKSRLTISKDTSKNQVVLKLTSVDPVDTATYYCARTVSSGYIYYAMDYWGQGTLVTVSS
VL: DIQMTQSPSSLSASVGDRVTITCRASSGIISYIDWFQQKPGKAPKRLIYATFDLASGVPSRFSGSGSGTDYTLTISSLQPEDFATYYCRQVGSYPETFGQGTKLEIKRTVAAPSVFIFPPDIQMTQSPSSLSASVGDRVTISCRASQDIRNYLNWYQQKPGKAPKLLIFYTSKLHSGVPSRFSGSGSGTDYTLTISSLQPEDIATYYCQQGLTPPLTFGGGTKVEIKR
B2: DVD2153 (bispecific antibody)
VH: EVQLVQSGAEVKKPGSSVKVSCKASGYTFTDYEIHWVRQAPGQGLEWMGVNDPESGGTFYNQKFDGRVTLTADESTSTAYMELSSLRSEDTAVYYCTRYSKWDSFDGMDYWGQGTTVTVSSASTKGPSVFPLAPEVTLRESGPGLVKPTQTLTLTCTLYGFSLSTSDMGVDWIRQPPGKGLEWLAHIWWDDVKRYNPALKSRLTISKDTSKNQVVLKLTSVDPVDTATYYCARTVSSGYIYYAMDYWGQGTLVTVSS
VL: DIQMTQSPSSLSASVGDRVTITCRASSGIISYIDWFQQKPGKAPKRLIYATFDLASGVPSRFSGSGSGTDYTLTISSLQPEDFATYYCRQVGSYPETFGQGTKLEIKRTVAAPDIQMTQSPSSLSASVGDRVTISCRASQDIRNYLNWYQQKPGKAPKLLIFYTSKLHSGVPSRFSGSGSGTDYTLTISSLQPEDIATYYCQQGLTPPLTFGGGTKVEIKR
B3: DVD2152 (bispecific antibody)
VH: EVTLRESGPGLVKPTQTLTLTCTLYGFSLSTSDMGVDWIRQPPGKGLEWLAHIWWDDVKRYNPALKSRLTISKDTSKNQVVLKLTSVDPVDTATYYCARTVSSGYIYYAMDYWGQGTLVTVSSASTKGPSVFPLAPEVQLVQSGAEVKKPGSSVKVSCKASGYTFTDYEIHWVRQAPGQGLEWMGVNDPESGGTFYNQKFDGRVTLTADESTSTAYMELSSLRSEDTAVYYCTRYSKWDSFDGMDYWGQGTTVTVSS
VL: DIQMTQSPSSLSASVGDRVTISCRASQDIRNYLNWYQQKPGKAPKLLIFYTSKLHSGVPSRFSGSGSGTDYTLTISSLQPEDIATYYCQQGLTPPLTFGGGTKVEIKRTVAAPDIQMTQSPSSLSASVGDRVTITCRASSGIISYIDWFQQKPGKAPKRLIYATFDLASGVPSRFSGSGSGTDYTLTISSLQPEDFATYYCRQVGSYPETFGQGTKLEIKR

Legend:
[1] = target: Recombinant Human IL-13 (human, UniProt P35225 35-146, limits assumed); assay: cell-based or functional assay
Sequence of Recombinant Human IL-13 (P35225 35-146 limits assumed): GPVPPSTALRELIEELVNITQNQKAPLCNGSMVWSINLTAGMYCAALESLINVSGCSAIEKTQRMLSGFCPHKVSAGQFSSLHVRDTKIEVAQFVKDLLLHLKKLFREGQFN

[2] = target: T1, Recombinant Human IL-17; assay: cell-based or functional assay

Binder	C-Terminal VD IL13 Neutralization Assay IC50 [1] [nM]	N-Terminal VD IL17 Neutralization Assay IC50 [2] [nM]	N-Terminal VD IL13 Neutralization Assay IC50 [1] [nM]	C-Terminal VD IL17 Neutralization Assay IC50 [2] [nM]
B1	0.526	0.0179		
B2	2.44	0.0049		
B3			0.112	0.0069
